The source of these data is article PMC9132996.

In general, Kd refers to the concentration at which binding is half-saturated.

In this data set the test system is PutA (proline utilization A) (Ralstonia solanacearum GMI1000). As to the kind of experiment: MST. The conditions noted are these: room temperature 30 min, buffer not stated.
For solI promoter 324 bp, the Kd is 12.7 nM. For trpEG promoter 291 bp, the Kd was 17.1 nM. Take phcB promoter 327 bp: the Kd was found to be 13 nM. With epsA promoter 336 bp, the Kd was found to be 10.7 nM.
